In IntAct's records for PubMed 20030366:

Tests used:
amrp_human LRPAP1 [1] = target: amrp_human LRPAP1 (UniProt P30533)
apoe_human APOE = apoe_human APOE (UniProt P02649)
amrp_human LRPAP1 [2] = target: amrp_human LRPAP1 (UniProt P30533); remark: listed apart in the source

amrp_human LRPAP1, sequence (P30533 whole entry): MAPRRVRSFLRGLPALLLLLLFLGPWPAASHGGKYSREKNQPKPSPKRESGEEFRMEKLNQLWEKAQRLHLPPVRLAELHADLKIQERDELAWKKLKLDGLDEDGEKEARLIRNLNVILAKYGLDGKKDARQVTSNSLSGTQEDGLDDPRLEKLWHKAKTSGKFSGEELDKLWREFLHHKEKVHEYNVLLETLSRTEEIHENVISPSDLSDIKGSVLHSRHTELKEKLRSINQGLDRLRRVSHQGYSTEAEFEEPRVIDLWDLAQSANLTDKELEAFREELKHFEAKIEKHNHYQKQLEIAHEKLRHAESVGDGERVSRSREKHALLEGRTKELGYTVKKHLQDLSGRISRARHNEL
apoe_human APOE, sequence (P02649 whole entry): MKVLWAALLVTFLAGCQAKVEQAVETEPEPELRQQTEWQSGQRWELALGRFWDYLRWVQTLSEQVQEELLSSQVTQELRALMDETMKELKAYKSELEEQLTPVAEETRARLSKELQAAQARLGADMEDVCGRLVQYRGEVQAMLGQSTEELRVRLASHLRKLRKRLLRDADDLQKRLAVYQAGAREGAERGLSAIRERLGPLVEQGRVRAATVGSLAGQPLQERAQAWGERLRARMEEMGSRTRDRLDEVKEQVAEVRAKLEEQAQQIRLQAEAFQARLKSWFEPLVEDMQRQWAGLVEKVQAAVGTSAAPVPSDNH

Row | Substance | effect of a mutation on the interaction (amrp_human LRPAP1 [1]) | effect of a mutation on the interaction (apoe_human APOE) | effect of a mutation on the interaction (amrp_human LRPAP1 [2])
1 | Prolow-density lipoprotein receptor-related protein 1 (Homo sapiens), Q07954 D2797A | decreasing interaction strength | decreasing interaction strength | –
2 | Prolow-density lipoprotein receptor-related protein 1 (Homo sapiens), Q07954 D2797A;D2840A | – | – | decreasing interaction strength
